Assay results as given in publication doi:10.1101/2023.05.25.542057 (bioRxiv, 2023).

Molecular target: the molecule itself
Assay: SEC-SAXS

B1: CDAN1-interacting nuclease 1 (CDIN1), full-length, recombinant from bacteria (natural protein)
chain: MILTKAQYDEIAQCLVSVPPTRQSLRKLKQRFPSQSQATLLSIFSQEYQKHIKRTHAKHHTSEAIESYYQRYLNGVVKNGAAPVLLDLANEVDYAPSLMARLILERFLQEHEETPPSKSIINSMLRDPSQIPDGVLANQVYQCIVNDCCYGPLVDCIKHAIGHEHEVLLRDLLLEKNLSFLDEDQLRAKGYDKTPDFILQVPVAVEGHIIHWIESKASFGDECSHHAYLHDQFWSYWNRFGPGLVIYWYGFIQELDCNRERGILLKACFPTNIVTLCHSIA
  stoichiometry N: 2
